Read-outs that look alike come from different tables or passages of the source.
What was measured:
[1] = target: the molecule itself; assay: SEC
[2] = target: the molecule itself; assay: SEC; remark: listed apart in the source

B1: HtrA3 S305A (enzyme)
chain: LHQLSSPRYKFNFIADVVEKIAPAVVHIELFLRHPLFGRNVPLSSGSGFIMSEAGLIITNAHVVSSNSAAPGRQQLKVQLQNGDSYEATIKDIDKKSDIATIKIHPKKKLPVLLLGHSADLRPGEFVVAIGSPFALQNTVTTGIVSTAQREGRELGLRDSDMDYIQTDAIINYGNAGGPLVNLDGEVIGINTLKVTAGISFAIPSDRITRFLTEFQDKQIKDWKKRFIGIRMRTITPSLVDELKASNPDFPEVSSGIYVQEVAPNSPSQRGGIQDGDIIVKVNGRPLVDSSELQEAVLTESPLLLEVRRGNDDLLFSIAPEVVM
- stoichiometry N [1]: 3

B2: HtrA3 F142A (enzyme)
chain: LHQLSSPRYKFNAIADVVEKIAPAVVHIELFLRHPLFGRNVPLSSGSGFIMSEAGLIITNAHVVSSNSAAPGRQQLKVQLQNGDSYEATIKDIDKKSDIATIKIHPKKKLPVLLLGHSADLRPGEFVVAIGSPFALQNTVTTGIVSTAQREGRELGLRDSDMDYIQTDAIINYGNSGGPLVNLDGEVIGINTLKVTAGISFAIPSDRITRFLTEFQDKQIKDWKKRFIGIRMRTITPSLVDELKASNPDFPEVSSGIYVQEVAPNSPSQRGGIQDGDIIVKVNGRPLVDSSELQEAVLTESPLLLEVRRGNDDLLFSIAPEVVM
- stoichiometry N [2]: 3

From publication PMC6993860 (Biochemical Journal, 2020)
